# Data from patent US20200339702A1 (ULTRAHUMAN THIRTEEN, published 2020).
# Numbering of substitutions follows the chain as printed. Names and notes keep the numbering of the source.
# T1: rhesus ERBB3 on transiently transfected HEK-293 cells (rhesus monkey (Macaca mulatta), UniProt P21860 20-1342 (human entry))
# T1 construct: also called rhesus ERBB3+ HEK-293 cells
# T1 chain: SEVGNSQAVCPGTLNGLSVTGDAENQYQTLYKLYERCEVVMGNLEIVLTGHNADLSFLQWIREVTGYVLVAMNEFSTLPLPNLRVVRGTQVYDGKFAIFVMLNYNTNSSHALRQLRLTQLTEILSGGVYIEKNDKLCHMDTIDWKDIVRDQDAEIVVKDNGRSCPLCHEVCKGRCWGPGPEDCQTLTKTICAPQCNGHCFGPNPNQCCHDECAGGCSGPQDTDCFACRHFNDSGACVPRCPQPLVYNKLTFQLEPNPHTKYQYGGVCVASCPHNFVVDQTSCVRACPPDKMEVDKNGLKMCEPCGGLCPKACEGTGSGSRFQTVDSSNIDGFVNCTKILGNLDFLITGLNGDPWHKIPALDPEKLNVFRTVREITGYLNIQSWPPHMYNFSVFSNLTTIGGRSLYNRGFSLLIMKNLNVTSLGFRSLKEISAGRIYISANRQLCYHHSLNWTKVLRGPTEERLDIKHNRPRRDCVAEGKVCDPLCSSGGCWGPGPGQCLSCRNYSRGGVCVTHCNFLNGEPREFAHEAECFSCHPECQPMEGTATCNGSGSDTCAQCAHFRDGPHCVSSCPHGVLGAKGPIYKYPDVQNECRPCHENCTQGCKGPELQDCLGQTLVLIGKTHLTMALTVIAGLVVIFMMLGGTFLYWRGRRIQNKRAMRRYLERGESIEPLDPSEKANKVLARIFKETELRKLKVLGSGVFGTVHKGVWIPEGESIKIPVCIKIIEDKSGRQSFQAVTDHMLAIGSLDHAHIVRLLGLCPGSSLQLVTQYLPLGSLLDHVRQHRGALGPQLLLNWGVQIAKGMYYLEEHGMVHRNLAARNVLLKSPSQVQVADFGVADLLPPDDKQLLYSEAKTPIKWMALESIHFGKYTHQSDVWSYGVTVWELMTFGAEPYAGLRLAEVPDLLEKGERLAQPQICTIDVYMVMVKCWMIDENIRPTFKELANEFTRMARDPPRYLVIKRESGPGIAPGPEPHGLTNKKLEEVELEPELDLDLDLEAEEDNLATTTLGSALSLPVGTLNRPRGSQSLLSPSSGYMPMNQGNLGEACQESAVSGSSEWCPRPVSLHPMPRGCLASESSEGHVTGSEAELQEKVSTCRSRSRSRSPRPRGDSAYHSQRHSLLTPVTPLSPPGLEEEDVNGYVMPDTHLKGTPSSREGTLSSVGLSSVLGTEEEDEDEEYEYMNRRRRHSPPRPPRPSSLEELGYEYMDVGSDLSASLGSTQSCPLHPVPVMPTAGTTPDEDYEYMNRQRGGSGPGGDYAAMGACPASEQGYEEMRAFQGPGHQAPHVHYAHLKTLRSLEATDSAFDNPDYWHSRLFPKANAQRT
# T2: rhesus monkey ERBB3 His tag, monomeric (rhesus monkey (Macaca mulatta), UniProt P21860 20-643 (human entry), limits assumed)
# T2 chain: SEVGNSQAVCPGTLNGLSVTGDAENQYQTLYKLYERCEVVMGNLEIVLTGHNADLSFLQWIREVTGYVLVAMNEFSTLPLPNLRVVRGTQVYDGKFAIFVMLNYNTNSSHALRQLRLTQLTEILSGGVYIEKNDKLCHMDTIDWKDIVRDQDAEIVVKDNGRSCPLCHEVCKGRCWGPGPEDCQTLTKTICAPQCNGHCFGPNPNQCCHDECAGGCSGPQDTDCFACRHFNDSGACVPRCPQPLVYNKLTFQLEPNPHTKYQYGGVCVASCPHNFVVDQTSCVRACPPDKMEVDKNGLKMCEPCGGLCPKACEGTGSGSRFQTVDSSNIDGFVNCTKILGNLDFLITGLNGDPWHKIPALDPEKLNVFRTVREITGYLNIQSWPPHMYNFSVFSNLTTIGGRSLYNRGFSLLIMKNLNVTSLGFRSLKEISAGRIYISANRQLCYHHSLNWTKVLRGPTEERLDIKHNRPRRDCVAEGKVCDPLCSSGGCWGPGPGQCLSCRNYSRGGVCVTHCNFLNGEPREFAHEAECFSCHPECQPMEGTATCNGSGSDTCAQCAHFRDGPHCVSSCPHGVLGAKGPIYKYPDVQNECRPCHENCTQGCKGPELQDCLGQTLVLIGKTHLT
# B1: 15G11 IgG1null (antibody, V domains shown)
# VH: QVQLVESGGGLVKPGGSLRLSCAASGFTFSDYGMSWIRQAPGKGLEWVSTISDSGSYTYYPDSVKGRFTISRDNAKNSLYLQMNSLRAEDTAVYYCARELGDYDGFDYWGQGTLVTVSS
# VL: DIQMTQSPSSLSASVGDRVTITCRASQEISSYLSWYQQKPGKAPKLLIYAASSLDSGVPSRFSGSGSGTDFTLTISSLQPEDFATYYCLQYDSTPYTFGGGTKVEIK
# notes: Human IgG1null (L234A, L235A, G237A) and human Ckappa
# B2: MH2 IgG1null (antibody, V domains shown)
# VH: B1 VH with T58I, P61A, L100W, Y108F
# VL: B1 VL with E28S, D55Q, Y96L
# notes: Designer (Maximally Humanized) clone; Human IgG1null and human Ckappa
# B3: 16B09 IgG1null (antibody, V domains shown)
# VH: B1 VH with G33S, S56T, L100W, Y108F
# VL: B1 VL with S53T, D55Q, Y96L
# notes: as for B1
# B4: 15E02 IgG1null (antibody, V domains shown)
# VH: B1 VH with S56T, Y57T, T58I, P61A, S63N, L100Y
# VL: B1 VL with E28S, D55Q, Y96L
# notes: Human IgG1null and human Ckappa
# B5: 11H02 IgG1null (antibody, V domains shown)
# VH: B1 VH with P61A, L100W, Y108N
# VL: B1 VL with E28I, D92Y, Y96L
# notes: as for B4
# B6: MH5 IgG1null (antibody, V domains shown)
# VH: B1 VH with Y57T, T58I, P61A, L100Y
# VL: B1 VL with E28S, D55Q, Y96L
# notes: as for B2
# B7: 17H10 IgG1null (antibody, V domains shown)
# VH: B1 VH with S54G, P61A, L100W, Y108E
# VL: B1 VL with E28S, S31G, S53T, D55Q
# notes: as for B4
# B8: MH4 IgG1null (antibody, V domains shown)
# VH: B1 VH with T58I, P61A, L100W, Y108E
# VL: B1 VL with E28S, D55Q, Y96L
# notes: as for B2
# B9: MH1 IgG1null (antibody, V domains shown)
# VH: B1 VH with T58I, P61A
# VL: B1 VL with E28S, D55Q, Y96L
# notes: as for B2
# B10: 15D10 IgG1null (antibody, V domains shown)
# VH: B1 VH with S54G, P61A, S63N, L100W, Y108F
# VL: B1 VL with E28S, S53T, D55Q, Y96L
# notes: as for B1
# B11: 15D03 IgG1null (antibody, V domains shown)
# VH: B1 VH with T58I, P61A, L100W, Y108H
# VL: B1 VL with D55Q, Y96L
# notes: as for B4
# B12: 09H02 IgG1null (antibody, V domains shown)
# VH: B1 VH with G33S, S54G
# VL: B1 VL with E28S, D55Q, Y96L
# notes: Human IgG1null and human Ckappa; also called 09HO2
# Target: T1, rhesus ERBB3 on transiently transfected …
# Experiment: flow cytometry, rhesus ERBB3-transfected HEK-293
# Experimental: (§1) Purified IgGs were tested in FACs for binding to human and rhesus monkey ERBB3 expressed on transiently transfected HEK-293 cells and HEK-293 wild-type cells. The IgG samples were titrated in three-fold serial dilutions starting at 500 nM to 0.008 nM. Binding of IgGs was detected with a mouse anti-human IgG conjugated to FITC. Results were analyzed by examining the Mean Fluorescence Intensity (MFI) of 10000 cells per sample in the BL-1 channel detector of a flow cytometer (Attune™ NxT Acoustic Focusing Cytometer, Invitrogen/ThermoFisher Scientific).
# (§2) Antibodies to ERBB3 were analysed for concentration-dependent binding at the cell surface via flow cytometry. HEK-293 cells were transiently transfected with either human or rhesus ERBB3 full-length cDNAs. Anti-ERBB3 IgGs and an isotype control were then all tested in IgG1null format, over a concentration range of 500-0.008 nM for binding to human (FIG. 5A) and rhesus (FIG. 5B) transfected cells.
row,"maximum MFI, fold over isotype control background",Binder
1,> 20 fold,B1
2,> 20 fold,B2
3,> 20 fold,B3
4,> 20 fold,B4
5,> 20 fold,B5
6,> 20 fold,B6
7,> 20 fold,B7
8,> 20 fold,B8
9,> 20 fold,B9
10,> 20 fold,B10
11,> 20 fold,B11
12,> 20 fold,B12

# Target: T3, human ERBB3 on transiently transfected HEK-293 cells (human, UniProt P21860 20-1342)
# T3 construct: also called human ERBB3+ HEK-293 cells
# Experiment: flow cytometry, human ERBB3-transfected HEK-293
# Experimental: as §1, §2
row,"maximum MFI, fold over isotype control background",Binder
1,> 20 fold,B1
2,> 20 fold,B2
3,> 20 fold,B3
4,> 20 fold,B4
5,> 20 fold,B5
6,> 20 fold,B6
7,> 20 fold,B7
8,> 20 fold,B8
9,> 20 fold,B9
10,> 20 fold,B10
11,> 20 fold,B11
12,> 20 fold,B12

# Target: T2, rhesus monkey ERBB3 His tag, monomeric
# Experiment: SPR (Biacore), captured IgG, monomeric ERBB3-His analyte
# Experimental: (§3) Affinity (KD) of purified IgGs was determined via SPR with antigen in-solution on a Biacore® 3000 (GE). A mouse anti-human antibody (CH1 specific) was immobilized on a CM5 Sensor Chip to a level of 2000 RU in acetate buffer at pH 4.5 using amine coupling following the Wizard instructions for two channels. One channel was used for background signal correction. The standard running buffer HBS-EP pH 7.4 was used. Regeneration was performed with a single injection of 10 μl of 10 mM Glycine at pH 1.5 at […]. IgG samples were injected for 2 minutes at 50 nM at 30 μl/min followed by an off-rate of 60 seconds. The monomeric antigen (human ERBB3 His tagged or rhesus monkey ERBB3 His tag) was injected in two fold serial dilutions from 3 nM down to 0.2 nM, for 2 minutes at 30 μl/min followed by an off-rate of 300 seconds. The obtained sensorgrams were analysed using the Biacore® 3000 evaluation (BlAevaluation) software. The KD was calculated by simultaneous fitting of the association and dissociation phases to a 1:1 Langmuir binding model.
# (§4) Biacore® analyses of binding affinity were performed for all IgGs to solution-phase, monomeric human and rhesus ERBB3 proteins.
Kd,koff,kon,Binder
0.33 nM,0.0011 s⁻¹,3.3e+06 M⁻¹ s⁻¹,B1
0.23 nM,0.0048 s⁻¹,2e+07 M⁻¹ s⁻¹,B2
0.21 nM,0.0027 s⁻¹,1.3e+07 M⁻¹ s⁻¹,B3
2.5 nM,0.0095 s⁻¹,3.7e+06 M⁻¹ s⁻¹,B4
2.1 nM,0.037 s⁻¹,1.7e+07 M⁻¹ s⁻¹,B5
0.51 nM,0.006 s⁻¹,1.2e+07 M⁻¹ s⁻¹,B6
0.65 nM,0.0018 s⁻¹,2.7e+06 M⁻¹ s⁻¹,B7
0.21 nM,0.0047 s⁻¹,2.2e+07 M⁻¹ s⁻¹,B8
0.45 nM,0.0056 s⁻¹,1.3e+07 M⁻¹ s⁻¹,B9
0.54 nM,0.0018 s⁻¹,3.3e+06 M⁻¹ s⁻¹,B10
0.26 nM,0.0047 s⁻¹,1.8e+07 M⁻¹ s⁻¹,B11
0.25 nM,0.0027 s⁻¹,1.1e+07 M⁻¹ s⁻¹,B12

# Target: T4, human ERBB3 His tagged, monomeric (human, UniProt P21860 20-643, biotinylated in the Alphascreen assays (sites not given))
# T4 construct: Used unbiotinylated as Biacore analyte and biotinylated in Alphascreen; treated as one molecule; also called human ERBB3-His (Acrobiosystems); biotinylated monomeric human ERBB3
# Experiment: as above
# Experimental: as §3, §4
Kd,koff,kon,Binder
0.078 nM,0.0012 s⁻¹,1.6e+07 M⁻¹ s⁻¹,B1
0.27 nM,0.0029 s⁻¹,1.1e+07 M⁻¹ s⁻¹,B2
0.089 nM,0.0014 s⁻¹,1.6e+07 M⁻¹ s⁻¹,B3
0.61 nM,0.0039 s⁻¹,6.3e+06 M⁻¹ s⁻¹,B4
1.3 nM,0.0081 s⁻¹,6.1e+06 M⁻¹ s⁻¹,B5
0.71 nM,0.0041 s⁻¹,5.8e+06 M⁻¹ s⁻¹,B6
0.19 nM,0.0017 s⁻¹,9.3e+06 M⁻¹ s⁻¹,B7
0.26 nM,0.0029 s⁻¹,1.1e+07 M⁻¹ s⁻¹,B8
0.51 nM,0.0035 s⁻¹,6.8e+06 M⁻¹ s⁻¹,B9
0.14 nM,0.0019 s⁻¹,1.4e+07 M⁻¹ s⁻¹,B10
0.26 nM,0.003 s⁻¹,1.1e+07 M⁻¹ s⁻¹,B11
0.43 nM,0.0013 s⁻¹,3.1e+06 M⁻¹ s⁻¹,B12
